Measurements as given in publication PMC11724365, “Novel archaeal ribosome dimerization factor facilitating unique 30S–30S dimerization” (Nucleic Acids Research, 2025).

Target: the molecule itself
Assay: cryo-EM structure; 1 uM P. furiosus 30S subunits with 5 uM aRDF (1:5) in 20 mM HEPES-KOH pH 7.0, 12 mM MgCl2, 100 mM NH4Cl, 0.5 mM EDTA; 15 min at 70 °C before freezing; Structures I and II at 3.2 Å

B1: archaeal ribosome dimerization factor (aRDF) (natural protein, Pyrococcus furiosus)
chain: MKVVGIKGSVSYLQALKYLKTKKVTKRLKEIEKLVDTLITLAPYAPEGSKIETIRKNYAKISFNKIKTVSRSKIGSPRIKSIMLLLWNFGLLDVKIIENSWYVRKTKLASLLEENFKDLSPSEKLKVYLLGGLLVDTPARFVYRCTLNGVEDYKGVKKAILGYLSDQRSNSLIIGLSNMLESIKFIEEAQAYSGKKEYIGLVDVAFYGLSGLYLDVKRESGKLTVKPNFRELRALYEIDKSVATGSDYGLSISKEILENLANTKRRKTIFSEEVQELLVNVIKENAISISQDLQNMYGII
notes: aRDF (PF0560 protein) of Pyrococcus furiosus; modelled in PDB 9FNY and 9FNZ with poorly defined loops omitted; Forms homodimers (monomers A and B); two homodimers bridge two 30S subunits in the cryo-EM structures; also called PF0560; PF0560 protein; source: E. coli BL21(DE3), purified (heat treatment, Ni-NTA, heparin)
stoichiometry N: 2
